Results as given in article PMC8405949 (2021).

B1: DNA ligase IIIα, human wild-type full-length (1–922 aa) (enzyme)
chain: MAEQRFCVDYAKRGTAGCKKCKEKIVKGVCRIGKVVPNPFSESGGDMKEWYHIKCMFEKLERARATTKKIEDLTELEGWEELEDNEKEQITQHIADLSSKAAGTPKKKAVVQAKLTTTGQVTSPVKGASFVTSTNPRKFSGFSAKPNNSGEAPSSPTPKRSLSSSKCDPRHKDCLLREFRKLCAMVADNPSYNTKTQIIQDFLRKGSAGDGFHGDVYLTVKLLLPGVIKTVYNLNDKQIVKLFSRIFNCNPDDMARDLEQGDVSETIRVFFEQSKSFPPAAKSLLTIQEVDEFLLRLSKLTKEDEQQQALQDIASRCTANDLKCIIRLIKHDLKMNSGAKHVLDALDPNAYEAFKASRNLQDVVERVLHNAQEVEKEPGQRRALSVQASLMTPVQPMLAEACKSVEYAMKKCPNGMFSEIKYDGERVQVHKNGDHFSYFSRSLKPVLPHKVAHFKDYIPQAFPGGHSMILDSEVLLIDNKTGKPLPFGTLGVHKKAAFQDANVCLFVFDCIYFNDVSLMDRPLCERRKFLHDNMVEIPNRIMFSEMKRVTKALDLADMITRVIQEGLEGLVLKDVKGTYEPGKRHWLKVKKDYLNEGAMADTADLVVLGAFYGQGSKGGMMSIFLMGCYDPGSQKWCTVTKCAGGHDDATLARLQNELDMVKISKDPSKIPSWLKVNKIYYPDFIVPDPKKAAVWEITGAEFSKSEAHTADGISIRFPRCTRIRDDKDWKSATNLPQLKELYQLSKEKADFTVVAGDEGSSTTGGSSEENKGPSGSAVSRKAPSKPSASTKKAEGKLSNSNSKDGNMQTAKPSAMKVGEKLATKSSPVKVGEKRKAADETLCQTKVLLDIFTGVRLYLPPSTPDFSRLRRYFVAFDGDLVQEFDMTSATHVLGSRDKNPAAQQVSPEWIWACIRKRRLVAPC
B2: Aprataxin (APTX), human wild-type full-length (enzyme)
chain: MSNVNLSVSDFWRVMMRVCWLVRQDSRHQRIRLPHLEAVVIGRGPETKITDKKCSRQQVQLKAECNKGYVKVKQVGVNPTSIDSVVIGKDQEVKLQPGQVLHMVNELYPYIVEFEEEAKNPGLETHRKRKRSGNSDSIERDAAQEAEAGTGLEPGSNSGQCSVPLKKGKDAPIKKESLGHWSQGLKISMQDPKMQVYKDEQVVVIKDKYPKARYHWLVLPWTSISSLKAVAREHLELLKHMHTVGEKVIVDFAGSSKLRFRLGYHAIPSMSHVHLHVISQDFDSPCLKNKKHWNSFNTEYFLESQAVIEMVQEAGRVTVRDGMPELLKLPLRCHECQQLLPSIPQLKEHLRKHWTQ

Experiments:
Assay in all cases: SPR
[1] = target: XRCC1 cancer-associated variant R194W (human, UniProt P18887 1-633, R194W)
[2] = target: XRCC1 cancer-associated variant R280H (human, UniProt P18887 1-633, R280H)
[3] = target: XRCC1 cancer-associated variant Y576S (human, UniProt P18887 1-633, Y576S)
[4] = target: XRCC1 cancer-associated variant P161L (human, UniProt P18887 1-633, P161L)
[5] = target: XRCC1 cerebellar ataxia-related K431N mutant (human, UniProt P18887 1-633, K431N)

Binder	Kd [1] [nM]	Kd [2] [nM]	Kd [3] [nM]	Kd [4] [nM]	Kd [5] [nM]
B1	44.9	43.6	50.4	37.3	–
B2	686	569	422	320	301
